The text below walks through data of IntAct's records for PubMed 22340593.

The chains are these.
B1: Tumor protein p73 (Homo sapiens), O15350 (parent)
chain: MAQSTATSPDGGTTFEHLWSSLEPDSTYFDLPQSSRGNNEVVGGTDSSMDVFHLEGMTTSVMAQFNLLSSTMDQMSSRAASASPYTPEHAASVPTHSPYAQPSSTFDTMSPAPVIPSNTDYPGPHHFEVTFQQSSTAKSATWTYSPLLKKLYCQIAKTCPIQIKVSTPPPPGTAIRAMPVYKKAEHVTDVVKRCPNHELGRDFNEGQSAPASHLIRVEGNNLSQYVDDPVTGRQSVVVPYEPPQVGTEFTTILYNFMCNSSCVGGMNRRPILIIITLEMRDGQVLGRRSFEGRICACPGRDRKADEDHYREQQALNESSAKNGAASKRAFKQSPPAVPALGAGVKKRRHGDEDTYYLQVRGRENFEILMKLKESLELMELVPQPLVDSYRQQQQLLQRPSHLQPPSYGPVLSPMNKVHGGMNKLPSVNQLVGQPPPHSSAATPNLGPVGPGMLNNHGHAVPANGEMSSSHSAQSMVSGSHCTPPPPYHADPSLVSFLTGLGCPNCIEYFTSQGLQSIYHLQNLTIEDLGALKIPEQYRMTIWRGLQDLKQGHDYSTAQQLLRSSNAATISIGGSGELQRQRVMEAVHFRVRHTITIPNRGGPGGGPDEWADFGFDLPDCKARKQPIKEEFTEAEIH
partner: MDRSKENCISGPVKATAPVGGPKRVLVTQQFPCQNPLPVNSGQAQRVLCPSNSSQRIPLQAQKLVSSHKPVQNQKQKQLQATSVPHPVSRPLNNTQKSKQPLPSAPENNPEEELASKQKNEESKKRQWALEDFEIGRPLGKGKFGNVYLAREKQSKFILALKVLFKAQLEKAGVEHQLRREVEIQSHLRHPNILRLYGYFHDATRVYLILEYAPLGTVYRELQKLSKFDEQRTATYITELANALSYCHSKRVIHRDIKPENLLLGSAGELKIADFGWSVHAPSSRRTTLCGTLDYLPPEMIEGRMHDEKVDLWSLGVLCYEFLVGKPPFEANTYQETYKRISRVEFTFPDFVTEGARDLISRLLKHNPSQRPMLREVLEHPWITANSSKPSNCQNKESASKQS
B2: Tumor protein p73 (Homo sapiens), O15350 (parent)
chain: B1 chain

In one assay the parent is B1. Conditions: with aurka_human AURKA.
In the case of S235D, the “effect of a mutation on the interaction” value is “increasing interaction strength”.

The next assay covers variants of B2. Conditions: with hspa9_human HSPA9, P38646.
Sequence of hspa9_human HSPA9, P38646 (P38646 whole entry): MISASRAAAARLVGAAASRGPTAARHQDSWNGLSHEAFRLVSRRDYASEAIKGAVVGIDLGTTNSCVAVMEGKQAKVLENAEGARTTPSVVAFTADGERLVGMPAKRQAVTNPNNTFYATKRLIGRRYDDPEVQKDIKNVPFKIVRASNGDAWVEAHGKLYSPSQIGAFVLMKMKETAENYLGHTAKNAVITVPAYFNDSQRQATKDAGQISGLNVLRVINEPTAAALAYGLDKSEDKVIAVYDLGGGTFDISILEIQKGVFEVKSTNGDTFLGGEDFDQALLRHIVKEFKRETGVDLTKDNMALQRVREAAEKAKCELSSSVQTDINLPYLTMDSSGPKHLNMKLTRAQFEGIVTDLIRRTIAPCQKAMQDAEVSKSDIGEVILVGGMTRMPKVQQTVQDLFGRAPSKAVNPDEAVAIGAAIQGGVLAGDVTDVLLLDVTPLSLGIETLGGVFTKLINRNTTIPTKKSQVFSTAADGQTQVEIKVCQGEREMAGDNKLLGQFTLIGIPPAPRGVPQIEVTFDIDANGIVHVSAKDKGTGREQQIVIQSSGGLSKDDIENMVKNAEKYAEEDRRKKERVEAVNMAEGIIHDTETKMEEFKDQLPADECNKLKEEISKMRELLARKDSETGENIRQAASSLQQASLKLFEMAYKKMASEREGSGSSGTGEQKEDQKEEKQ
For the variant S235D, the “effect of a mutation on the interaction” value is recorded as “increasing interaction strength”.
